# T1: cynomolgus (cyno) FAP protein (cynomolgus monkey)
# T1 chain: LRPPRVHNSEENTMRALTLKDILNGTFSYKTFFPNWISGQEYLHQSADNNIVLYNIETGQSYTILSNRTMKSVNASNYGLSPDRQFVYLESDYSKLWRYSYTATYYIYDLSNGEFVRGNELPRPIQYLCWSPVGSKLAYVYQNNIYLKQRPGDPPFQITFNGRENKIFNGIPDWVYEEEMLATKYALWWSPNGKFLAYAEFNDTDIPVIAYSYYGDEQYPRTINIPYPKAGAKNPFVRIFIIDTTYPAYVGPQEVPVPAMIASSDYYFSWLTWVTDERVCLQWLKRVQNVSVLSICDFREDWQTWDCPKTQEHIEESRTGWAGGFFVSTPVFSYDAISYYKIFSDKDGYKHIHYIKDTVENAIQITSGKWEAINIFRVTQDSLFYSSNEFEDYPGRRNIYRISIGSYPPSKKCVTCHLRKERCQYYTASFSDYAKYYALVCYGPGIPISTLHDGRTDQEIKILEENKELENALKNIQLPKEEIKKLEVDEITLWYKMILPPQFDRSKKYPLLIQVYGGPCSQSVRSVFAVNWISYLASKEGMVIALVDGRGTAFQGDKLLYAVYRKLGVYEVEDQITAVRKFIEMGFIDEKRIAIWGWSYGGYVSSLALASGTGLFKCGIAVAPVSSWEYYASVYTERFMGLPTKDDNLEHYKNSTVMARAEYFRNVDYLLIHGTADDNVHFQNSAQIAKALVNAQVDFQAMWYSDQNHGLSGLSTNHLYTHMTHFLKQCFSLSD
# T2: soluble FAP (human, UniProt Q12884 26-760, limits assumed)
# T2 sequence: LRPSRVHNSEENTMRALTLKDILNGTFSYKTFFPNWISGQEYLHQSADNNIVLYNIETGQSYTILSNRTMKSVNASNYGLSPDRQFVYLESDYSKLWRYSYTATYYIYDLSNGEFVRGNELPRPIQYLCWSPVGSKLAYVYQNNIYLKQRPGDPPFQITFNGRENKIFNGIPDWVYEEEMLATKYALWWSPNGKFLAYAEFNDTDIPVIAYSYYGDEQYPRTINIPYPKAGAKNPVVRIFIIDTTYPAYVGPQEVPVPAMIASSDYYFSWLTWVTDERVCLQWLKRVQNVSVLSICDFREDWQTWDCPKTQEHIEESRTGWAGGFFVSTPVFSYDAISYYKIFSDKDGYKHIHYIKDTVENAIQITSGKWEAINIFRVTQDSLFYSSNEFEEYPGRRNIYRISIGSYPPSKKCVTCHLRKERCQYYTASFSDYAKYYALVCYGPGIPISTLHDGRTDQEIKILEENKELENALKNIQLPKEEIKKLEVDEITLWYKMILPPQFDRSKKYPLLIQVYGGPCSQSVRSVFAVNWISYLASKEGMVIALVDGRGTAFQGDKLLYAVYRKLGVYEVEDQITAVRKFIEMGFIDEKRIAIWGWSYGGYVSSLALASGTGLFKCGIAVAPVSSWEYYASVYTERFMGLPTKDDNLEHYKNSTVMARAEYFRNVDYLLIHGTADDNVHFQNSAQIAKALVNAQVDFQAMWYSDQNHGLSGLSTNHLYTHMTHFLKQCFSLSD
# T3: human FAP on cells (human, UniProt Q12884 1-760)
# T3 sequence: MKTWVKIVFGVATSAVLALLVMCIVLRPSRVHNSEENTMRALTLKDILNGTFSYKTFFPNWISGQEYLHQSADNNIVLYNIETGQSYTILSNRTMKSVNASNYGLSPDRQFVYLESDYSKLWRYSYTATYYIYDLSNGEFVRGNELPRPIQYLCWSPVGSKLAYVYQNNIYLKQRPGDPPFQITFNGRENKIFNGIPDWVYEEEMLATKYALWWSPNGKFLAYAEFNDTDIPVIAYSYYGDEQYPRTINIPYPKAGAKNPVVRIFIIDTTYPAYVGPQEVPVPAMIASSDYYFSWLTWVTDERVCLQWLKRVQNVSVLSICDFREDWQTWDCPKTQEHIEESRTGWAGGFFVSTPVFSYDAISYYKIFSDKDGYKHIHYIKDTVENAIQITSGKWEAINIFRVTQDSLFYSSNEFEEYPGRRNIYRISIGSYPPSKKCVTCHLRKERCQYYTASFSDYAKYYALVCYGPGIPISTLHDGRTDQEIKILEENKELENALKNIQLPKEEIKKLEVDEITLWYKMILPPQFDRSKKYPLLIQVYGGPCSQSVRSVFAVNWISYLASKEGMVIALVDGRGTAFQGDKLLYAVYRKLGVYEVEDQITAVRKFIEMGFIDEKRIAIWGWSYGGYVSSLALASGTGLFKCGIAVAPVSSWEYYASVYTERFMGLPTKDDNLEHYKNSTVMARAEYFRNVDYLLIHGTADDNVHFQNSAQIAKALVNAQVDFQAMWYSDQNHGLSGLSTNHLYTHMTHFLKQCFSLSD
# Assays:
# [1] = molecular target: T1, cynomolgus (cyno) FAP protein; experiment: SPR
# Protocol: CD40.9H3×FAP.LP62 and an analog of RO7300490 (see SEQ ID NOs: 39-42) binding to human and cynomolgus (cyno) CD40 and FAP was evaluated by surface plasmon resonance (SPR) using human and cyno CD40 and FAP proteins. […] The rates of association and dissociation of CD40.9H3×FAP.LP62 and the analog of RO7300490 to human CD40 and FAP are summarized in Table 2.
# soluble FAP [2] = molecular target: T2, soluble FAP; experiment: cell-based or functional assay
# human FAP on cells [3] = molecular target: T3, human FAP on cells; experiment: cell-based or functional assay
# human FAP on cells [4] = molecular target: T3, human FAP on cells; experiment: binding to human FAP-positive HEK cells
# cyno FAP on HEK cells = molecular target: T4, cyno FAP on HEK cells (cynomolgus monkey); experiment: binding to cyno FAP-positive HEK cells
# T4 construct: whole, on cells; also called Cyno FAP-positive HEK cells
# soluble FAP [5] = molecular target: T2, soluble FAP; experiment: cell-based or functional assay; remark: listed apart in the source
# human FAP on cells [6] = molecular target: T3, human FAP on cells; experiment: cell-based or functional assay; remark: listed apart in the source
# cyno CD40 on B cells = molecular target: T5, cyno CD40 on B cells (cynomolgus monkey, UniProt G7PG38 21-278); experiment: binding to cyno CD40-positive B cells
# T5 construct: whole, on cells; also called Cyno CD40-positive B cell
# human CD40 on cells = molecular target: T6, human CD40 on cells (human, UniProt P25942 21-277); experiment: binding to human CD40-positive B cells
# T6 construct: Endogenous CD40 on human primary cells and Raji cells; also called CD40-positive macrophage; CD40-positive B cell
# T6 sequence (P25942 21-277): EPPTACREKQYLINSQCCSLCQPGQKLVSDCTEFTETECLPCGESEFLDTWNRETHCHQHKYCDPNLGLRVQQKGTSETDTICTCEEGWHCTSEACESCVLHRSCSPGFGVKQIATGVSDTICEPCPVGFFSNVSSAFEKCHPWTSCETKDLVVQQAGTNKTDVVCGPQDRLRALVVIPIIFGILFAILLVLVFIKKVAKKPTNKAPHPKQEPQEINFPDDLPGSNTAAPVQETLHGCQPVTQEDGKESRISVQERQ
binder,measurement,setting,value
"CD40.9H3×FAP.LP62 bispecific antibody (bispecific antibody, human IgG1, kappa, L234A L235A, 2+1 format: two anti-CD40 9H3 Fabs on an IgG1 Fc with L234A, L235A, D265S and heterodimerization mutations; Ratio 1:1:2) heavy 1: EVQLVESGGGLVQPGGSLRLSCAASGFTFIGYSMNWVRQAPGKGLEWVSYISSYESTIYYADSVKGRFTISRDNAKNSLYLQMNSLRAEDTAVYYCARSRITLVRGVPRYFDLWGRGTLVTVSSASTKGPSVFPLAPSSKSTSGGTAALGCLVKDYFPEPVTVSWNSGALTSGVHTFPAVLQSSGLYSLSSVVTVPSSSLGTQTYICNVNHKPSNTKVDKKVEPKSCDKTHTCPPCPAPEAAGGPSVFLFPPKPKDTLMISRTPEVTCVVVSVSHEDPEVKFNWYVDGVEVHNAKTKPREEQYNSTYRVVSVLTVLHQDWLNGKEYKCKVSNKALPAPIEKTISKAKGQPREPQVYVLPPSREEMTKNQVSLLCLVKGFYPSDIAVEWESNGQPENNYLTWPPVLDSDGSFFLYSKLTVDKSRWQQGNVFSCSVMHEALHNHYTQKSLSLSPG heavy 2: EVQLVESGGGLVQPGGSLRLSCAASGFTFIGYSMNWVRQAPGKGLEWVSYISSYESTIYYADSVKGRFTISRDNAKNSLYLQMNSLRAEDTAVYYCARSRITLVRGVPRYFDLWGRGTLVTVSSASTKGPSVFPLAPSSKSTSGGTAALGCLVKDYFPEPVTVSWNSGALTSGVHTFPAVLQSSGLYSLSSVVTVPSSSLGTQTYICNVNHKPSNTKVDKKVEPKSCDKTHTCPPCPAPEAAGGPSVFLFPPKPKDTLMISRTPEVTCVVVSVSHEDPEVKFNWYVDGVEVHNAKTKPREEQYNSTYRVVSVLTVLHQDWLNGKEYKCKVSNKALPAPIEKTISKAKGQPREPQVYVYPPSREEMTKNQVSLTCLVKGFYPSDIAVEWESNGQPENNYKTTPPVLDSDGSFALVSKLTVDKSRWQQGNVFSCSVMHEALHNHYTQKSLSLSPGGGSGGGGSGGGGSGGGGSEVQLLESGGGLVQPGGSLRLSCAASGFTFSSRGMSWVRQAPGKCLEWVSFISSSGTYVYYADSVKGRFTISRDNSKNTLYLQMNSLRAEDTAVYYCARDLPRTGVYFGMDVWGQGTTVTVSSGGGGSGGGGSGGGGSGGGGSDIQMTQSPSSLSASVGDRVTITCRASQSIFNYLNWYQQKPGKAPKLLIYGASTLQSGVPSRFSGSGSGTDFTLTISSLQPEDFATYYCQESYSTPYTFGCGTKVEIK light: not shown",Kd,[1],5.6 nM
same,koff,[1],0.00276 s⁻¹
same,kon,[1],500000 M⁻¹ s⁻¹
same,"IL12p40 release, human DC + HFF1 co-culture, EC50, soluble FAP 120 ng/mL",soluble FAP [2],0.46 nM
same,"IL12p40 release, human DC + HFF1 co-culture, EC50, soluble FAP 480 ng/mL",soluble FAP [2],0.8 nM
same,"IL12p40 release, human DC + HFF1 co-culture, EC50, soluble FAP 0 ng/mL",human FAP on cells [3],0.13 nM
same,EC50,human FAP on cells [4],3.72 nM
same,EC50,cyno FAP on HEK cells,3.6 nM
same,fold reduction in potency of IL12p40 secretion with 120 ng/mL soluble FAP,soluble FAP [5],4.2 fold
same,fold reduction in potency of IL12p40 secretion with 480 ng/mL soluble FAP,soluble FAP [5],7.5 fold
same,"IL12p40 secretion, human DC + HFF1 co-culture, EC50",human FAP on cells [6],0.079 nM
same,"TNFα release, CD40-positive macrophages + HFF1 co-culture, EC50",human FAP on cells [6],0.12 nM
same,EC50,cyno CD40 on B cells,4.69 nM
same,EC50,human CD40 on cells,7.53 nM
